Reference: the supplement of paper PMC11811203

B1: THAP1; numbered along this chain (parent)
chain: MVQSCSAYGCKNRYDKDKPVSFHKFPLTRPSLCKEWEAAVRRKNFKPTKYSSICSEHFTPDCFKRECNNKLLKENAVPTIFLCTEPHDKKEDLLEPQEQLPPPPLPPPVSQVDAAIGLLMPPLQTPVNLSVFCDHNYTVEDTMHQRKRIHQLEQQVEKLRKKLKTAQQRCRRQERQLEKLKEVVHFQKEKDDVSERGYVILPNDYFEIVEVPA

Variants of: B1
Test: THAP1 transcriptional activity (GFP+/GFP- enrichment relative to wild-type constructs) (ratio to WT); higher = more THAP1 activity (PSMB5 reporter activation)
Settings: with PSMB5 promoter-GFP reporter
Outline: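 Activity values are replicate-mean bright/dim read fold changes divided by the mean of wild-type synonymous constructs. They come from a human THAP1 site-saturation library (residues 2–213, each changed to all 20 amino acids) delivered by lentivirus at MOI ~0.3, in duplicate, into THAP1-knockout HEK-293T cells with mClover3 at endogenous PSMB5. BFP+ cells were sorted into GFP-dim and GFP-bright bins after five days, and variants were counted by Illumina sequencing of genomic DNA amplicons.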

Variant | THAP1 transcriptional activity
H135P | 0.31
H144M | 0.509
P202I | 0.585
E178V | 0.568
E178D | 0.665
V2T | 0.21
D88C | 0.815
D191W | 1.06
R65W | 0.212
R65L | 1.04
R65C | 0.173
N128M | 0.264
N128G | 0.685
L100G | 0.906
L100T | 1.6
P26L | 0.104
P26V | 0.127
P26E | 0.157
G9P | 0.116
K49H | 0.0815
K49R | 0.427
H57R | 0.183
Y198Q | 1.51
R146Y | 0.539

Variant | THAP1 transcriptional activity
P102G | 2.33
P78F | 0.267
D134S | 0.277
D134H | 0.203
K190D | 0.645
K190W | 0.724
K190P | 0.901
K190Y | 0.762
C33F | 0.17
C33L | 0.708
C33N | 0.177
S110V | 0.459
S110W | 0.41
L105S | 2.43
L105I | 2.11
N69V | 0.399
S51H | 0.145
S51C | 0.128
S51M | 0.26
E174D | 0.712
C62G | 0.113
C62V | 0.0798
K64L | 0.145
I53G | 0.0813

Variant | THAP1 transcriptional activity
L123N | 1.54
A115L | 0.295
A115W | 0.164
A213C | 0.884
A213W | 0.538
A213I | 0.974
A213F | 0.655
V199C | 0.947
V199R | 0.478
V199A | 0.703
E153S | 0.631
E153K | 0.513
Q124T | 0.351
K46V | 0.455
K46I | 0.465
V193C | 1.04
V193I | 0.883
Q173L | 0.611
Q155M | 0.674
T142V | 0.403
T142R | 0.576
F45R | 0.146
V112P | 1.04
C5N | 0.208

Variant | THAP1 transcriptional activity
C5P | 0.0866
C5V | 0.174
Y50K | 0.0751
Y50F | 0.616
Q168K | 0.394
Q168C | 0.512
P122D | 0.515
P122W | 0.159
L180V | 0.58
R13G | 0.106
R13T | 0.147
A39F | 0.283
Y14L | 0.146
Y14G | 0.085
Y14V | 0.151
Y14A | 0.211
Y14P | 0.164
S52F | 0.325
S52D | 0.109
N68D | 0.0906
K89F | 1.17
K89H | 1.44
L72M | 0.106
L72K | 0.0937

Variant | THAP1 transcriptional activity
L72F | 0.177
K73V | 0.644
W36A | 0.0783
K164P | 0.28
K164G | 0.106
P60A | 0.758
P60K | 0.834
P60T | 0.758
R171W | 0.258
R171G | 0.285
R171P | 0.186
D141L | 0.286
I149E | 0.225
I149D | 0.218
I149R | 0.245
A166W | 0.485
A166C | 1.14
R172F | 0.247
C170T | 0.457
C170S | 0.425
T28M | 0.3
T28P | 0.103
V209T | 0.765
V209R | 0.953

Variant | THAP1 transcriptional activity
N75T | 0.612
Q176H | 0.546
Q111Y | 0.232
Q111E | 0.762
Q111R | 0.543
C67G | 0.127
C67A | 0.639
Q187T | 0.99
P126H | 0.531
P126I | 0.18
Y137W | 0.0825
Y137T | 0.136
R169Y | 0.183
L71E | 0.221
I116S | 1.3
I116C | 0.903
E207L | 1.2
E207I | 0.667
E207C | 1.11
A38K | 1.34
A38S | 0.593
A38T | 0.773
A38P | 0.09
L82N | 1.88

Variant | THAP1 transcriptional activity
T84R | 1.39
T84P | 1.44
A7K | 0.186
R41V | 0.131
I208V | 1.2
I208A | 0.838
K18L | 0.367
L118N | 2.21
K34C | 0.284
K34S | 0.646
F81M | 0.341
R175G | 0.388
R175N | 0.379
R175P | 0.102
D204Y | 0.63
P107L | 1.74
F132G | 0.49
F132Q | 0.462
P19Q | 0.335
P19R | 0.675
P19E | 0.528
V127M | 0.396
V127P | 0.879
F63Y | 0.623

Variant | THAP1 transcriptional activity
K181C | 0.297
K181D | 0.296
K181Y | 0.36
R196M | 0.811
V184Q | 1.09
Y205S | 1.17
D61P | 0.104
D61Y | 0.127
P212C | 0.673
P212D | 0.943
P212H | 2.31
S6G | 0.123
S6W | 0.163
L27E | 0.0928
M143L | 0.725
M143V | 1.09
H185Y | 0.905
H185I | 0.617
H185W | 0.528
H185F | 0.469
H185T | 1.07
G197N | 1.56
E189S | 1.03
C83P | 0.676

Variant | THAP1 transcriptional activity
C83K | 1
L32Y | 0.135
Q3T | 0.534
Q3D | 0.119
Q154V | 0.661
N44S | 0.494
F186Q | 2.25
V40H | 0.17
V40R | 0.1
V40I | 1.6
V40G | 0.0879
A114T | 1.27
E37M | 0.792
E37N | 0.451
L152R | 0.306
L152I | 0.29
L152Q | 0.191
L152V | 0.213
L93E | 1.43
S31C | 0.206
S31M | 0.6
S31G | 1.17
L159R | 0.193
K24M | 0.118

Variant | THAP1 transcriptional activity
K24S | 0.088
K24V | 0.121
K24D | 0.116
K11E | 0.121
K11W | 0.0942
N203T | 1.15
N203Y | 1.02
N203R | 0.497
N203C | 0.834
N203W | 0.535
T59C | 0.138
T59P | 0.248
E56Q | 0.873
E56N | 0.344
E56D | 1.26
M120G | 0.81
M120P | 1.25
M120D | 1.08
V109N | 2.02
E157V | 0.835
P108N | 2.3
P108W | 0.601
F25P | 0.105
T165D | 0.416

Variant | THAP1 transcriptional activity
D192N | 0.81
S194C | 0.978
S194A | 0.876
E210S | 0.594
P86F | 0.921
K16M | 0.105
V20C | 0.141
V20Y | 0.312
V20T | 0.58
K147L | 0.458
K147N | 0.976
E98K | 1.43
E98G | 1.03
E98P | 0.816
H23M | 0.0825
H23Y | 0.179
A76C | 0.862
A76F | 0.307
A76I | 0.165
N136A | 0.208
I200M | 0.751
I200V | 1.05
I200R | 0.412
I200D | 0.703

Variant | THAP1 transcriptional activity
K70C | 0.313
K70Q | 0.437
K70A | 0.434
K70E | 0.134
R148W | 0.179
T125Q | 0.85
T125P | 0.865
L129A | 0.855
L129P | 0.79
L129E | 0.516
S55T | 0.128
S55G | 0.185
P104W | 0.527
P104R | 0.888
T79C | 0.183
T79M | 0.254
E35P | 0.243
E35L | 1.18
E35Y | 0.266
E35H | 0.328
F22R | 0.0771
F22C | 0.0658
F22I | 0.178
K188M | 0.605

Variant | THAP1 transcriptional activity
K188L | 0.724
Q145N | 0.719
S4H | 0.111
S4Y | 0.123
S4R | 0.164
S4G | 0.254
S4V | 0.187
S130N | 0.651
L94T | 1.14
L94M | 1.84
L94V | 1.47
Q97S | 0.872
Q97Y | 0.765
Q97P | 1.25
V156C | 0.708
V156K | 0.343
V156D | 0.153
C133S | 1.44
C133K | 1.7
K90T | 1.43
V139Q | 0.576
V211H | 1.29
V211Y | 0.843
V211N | 0.965

Variant | THAP1 transcriptional activity
H150C | 0.635
H150I | 0.713
H150N | 0.896
L201R | 0.9
L201E | 0.953
P47K | 0.111
P47Q | 0.104
P47I | 0.36
D113G | 0.816
K158R | 0.941
K158P | 0.175
R29Q | 0.36
R29P | 0.135
D15A | 0.754
D15R | 0.656
E140N | 1.33
E182K | 1.56
E182C | 0.657
R42M | 0.0797
T138A | 2.41
T138M | 0.238
V77L | 0.547
